Source: paper PMC5241339
Several values for one entry are separate records, joined by “and”; a condition that tells them apart may be missing. Equal entries are not always repeated.

Assays:
[1] = molecular target: CD36 on CHO-CD36 cells (UniProt P16671); test: radioligand binding; CHO cell lines incubated with [18F]FB-rS100A12 in PBS++ for 90 min at 37 °C, lysed, gamma counter, % ID per protein; blocking with 15-fold excess of rS100A12 or anti-CD36 antibody FA6-152 added 20 min before
[2] = molecular target: receptor for advanced glycation endproducts (RAGE) on CHO-RAGE cells (UniProt Q15109); test: as above
[3] = molecular target: CD36 (His-tagged recombinant human protein, Sino Biological, Life technologies, 70-80 kDa) (human) (UniProt P16671); test: SPR; Biacore T100; CD36 immobilized by amine coupling on a C1 chip (1000 RU); S100A12 species as analyte 0.62-50.0 nM, single cycle kinetics, 30 µL/min, 25 °C; HBS-P+ with 350 µM CaCl2; two-state reaction model
[4] = molecular target: CD36 on CHO-CD36 cells (UniProt P16671); test: cell binding of a fluorescent tracer (fluorescence of cell lysates, plate reader); CHO cell lines in 24-well plates incubated with 10 µM fluorescein-rS100A12 for 90 min at 37 °C, lysed, fluorescence per protein; blocking with anti-CD36 antibody FA6-152 10 µg/mL, 30 min before
[5] = molecular target: receptor for advanced glycation endproducts (RAGE) on CHO-RAGE cells (UniProt Q15109); test: as above

Chain of CD36 (His-tagged recombinant human protein, Sino Biological, Life technologies, 70-80 kDa) (human) (P16671 30-439): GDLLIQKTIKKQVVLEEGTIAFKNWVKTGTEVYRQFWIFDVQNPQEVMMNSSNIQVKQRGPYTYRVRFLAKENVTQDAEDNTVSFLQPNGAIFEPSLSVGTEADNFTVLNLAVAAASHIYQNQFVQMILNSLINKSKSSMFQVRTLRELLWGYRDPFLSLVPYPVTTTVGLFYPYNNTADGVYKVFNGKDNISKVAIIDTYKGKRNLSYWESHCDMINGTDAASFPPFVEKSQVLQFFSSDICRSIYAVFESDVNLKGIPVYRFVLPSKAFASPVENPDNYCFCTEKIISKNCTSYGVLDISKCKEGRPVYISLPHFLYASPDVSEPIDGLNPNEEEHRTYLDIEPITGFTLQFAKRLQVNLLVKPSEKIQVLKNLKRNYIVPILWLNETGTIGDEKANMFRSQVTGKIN
Chain of CD36 on CHO-CD36 cells (P16671 whole entry): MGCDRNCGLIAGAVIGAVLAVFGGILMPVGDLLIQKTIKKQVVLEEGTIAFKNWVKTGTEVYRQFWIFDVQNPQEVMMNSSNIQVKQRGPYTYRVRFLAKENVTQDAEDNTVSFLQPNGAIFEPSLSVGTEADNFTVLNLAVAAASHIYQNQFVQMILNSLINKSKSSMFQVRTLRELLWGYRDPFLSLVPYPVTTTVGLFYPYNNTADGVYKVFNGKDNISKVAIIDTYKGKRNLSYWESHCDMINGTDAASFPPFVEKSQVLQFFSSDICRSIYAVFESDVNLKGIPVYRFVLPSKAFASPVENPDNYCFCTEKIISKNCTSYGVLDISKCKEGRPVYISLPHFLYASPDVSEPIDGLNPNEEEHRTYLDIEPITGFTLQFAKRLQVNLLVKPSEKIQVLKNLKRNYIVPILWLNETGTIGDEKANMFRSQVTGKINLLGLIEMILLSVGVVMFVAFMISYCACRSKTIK
Chain of 4-[18F]fluorobenzoyl-rS100A12 ([18F]FB-rS100A12) (natural protein) (P80511 2-92): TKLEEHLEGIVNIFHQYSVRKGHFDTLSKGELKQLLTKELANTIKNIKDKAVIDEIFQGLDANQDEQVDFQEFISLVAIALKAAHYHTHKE
Chain of receptor for advanced glycation endproducts (RAGE) on CHO-RAGE cells (Q15109 23-404): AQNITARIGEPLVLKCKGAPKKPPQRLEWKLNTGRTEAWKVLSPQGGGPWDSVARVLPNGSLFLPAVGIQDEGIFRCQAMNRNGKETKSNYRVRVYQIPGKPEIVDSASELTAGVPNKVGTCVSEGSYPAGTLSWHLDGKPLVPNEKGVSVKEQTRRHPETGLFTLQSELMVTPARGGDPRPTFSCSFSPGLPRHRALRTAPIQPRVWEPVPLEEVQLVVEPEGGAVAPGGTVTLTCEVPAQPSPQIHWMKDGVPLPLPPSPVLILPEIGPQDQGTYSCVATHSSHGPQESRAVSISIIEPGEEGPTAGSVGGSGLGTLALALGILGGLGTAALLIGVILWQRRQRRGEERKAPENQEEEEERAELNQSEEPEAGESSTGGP

4-[18F]fluorobenzoyl-rS100A12 ([18F]FB-rS100A12) (natural protein)
cell association higher than in CHO-K1 cells [1]: 20%
cell association higher than in CHO-K1 cells [2]: 40%

fluorescein-labeled rS100A12 (natural protein)
Kd [3]: 4.79 nM
binding higher than in CHO-K1 cells [4]: 30%
binding higher than in CHO-K1 cells [5]: 50%

recombinant S100A12 (rS100A12) (natural protein)
Kd [3]: 0.67 nM and 0.99 nM
